For one substance, percentage of lysis of the target HeLa cells (Calcein release), NKG2A-KO against wild-type NK-92 effector cells (% more target HeLa cells killed) results are on record in US20180100158A1.

The assay concerns the target HLA-E expressed on the surface of HeLa cells (human (endogenous on HeLa cells)) (UniProt P13747). Nature of the assay: cell-based or functional assay.
UniProt P13747, sequence (P13747 22-358): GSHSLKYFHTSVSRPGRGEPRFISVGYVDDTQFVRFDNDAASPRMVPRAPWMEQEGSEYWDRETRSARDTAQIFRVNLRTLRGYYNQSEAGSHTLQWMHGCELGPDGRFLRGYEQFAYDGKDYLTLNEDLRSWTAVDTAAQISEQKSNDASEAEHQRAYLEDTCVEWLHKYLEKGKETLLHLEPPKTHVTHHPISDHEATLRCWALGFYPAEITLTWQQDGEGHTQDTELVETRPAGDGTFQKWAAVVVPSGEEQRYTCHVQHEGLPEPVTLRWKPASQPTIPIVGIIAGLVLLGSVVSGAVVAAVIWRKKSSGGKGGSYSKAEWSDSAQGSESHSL

On to “NKG2A receptor on the surface of NK-92 cells (from UniProt P26715 1-233)”, for which the percentage of lysis of the target HeLa cells (Calcein release), NKG2A-KO against wild-type NK-92 effector cells (% more target HeLa cells killed) is 10 to 15.
